Article PMC12043044, “Synthesis of Selectively ^13C/^2H/^15N‐ Labeled Arginine to Probe Protein Conformation and Interaction by NMR Spectroscopy” (Chemistry (Weinheim an Der Bergstrasse, Germany), 2025)

Molecular target: T1, human ubiquitin (human, UniProt P0CG48 1-76)
T1 construct: ubiquitin, human, the 76 amino acid-long protein (cut product of the polyubiquitin or ubiquitin-ribosomal fusion precursors); Isotope-labelled only (uniformly 15N, arginines 13Cdelta/2Hbeta,gamma/15Nepsilon); No tag is mentioned and the purification uses none; also called arginine-labeled ubiquitin; source: E. coli BL21(DE3), pET-21a(+), purified (heat shock at 70 °C, anion exchange, size …)
Assay: NMR titration; 70 µM arginine-labeled (U-15N, 13Cδ/2Hβγ/15Nε Arg) ubiquitin titrated with increasing amounts of unlabeled Sla1 SH3-3; 50 mM Tris-HCl, pH 8.0, 25 °C; 1H-13C HSQC and 1H-15N SOFAST-HMQC, chemical shift perturbations
Settings: both partners purified

binding result: binds
B1: third SH3 domain (SH3-3) of yeast endocytic protein Sla1 (domain or fragment)
chain: MASKSKKRGIVQYDFMAESQDELTIKSGDKVYILDDKKSKDWWMCQLVDSGKSGLVPAQFIEPVRDKKHTE
notes: Sla1, yeast, third SH3 domain (SH3-3); residues E367, E371 and F409 are named as lying in the domain (PDB 2JT4); PDB 2JT4 is the cited NMR model of the complex with ubiquitin and may hold other limits; Plasmid bought from GeneCust; No removal of the tag is described; also called Sla1 SH3-3; source: cell-free expression (E. coli S15 extract, pIVEX2.3d vector), purified (HisTrap FF)
